Columns and labels:
[1] = test system: SD rats with bleomycin-induced pulmonary fibrosis; assay: Bleomycin-induced pulmonary fibrosis animal model; assay type: in vivo; conditions: for Survival rate (%): bleomycin 5 mg/kg intratracheal, dosage 10 mg/kg (Table 2), administration cycle 15 days from day 7 after modeling; for hydroxyproline (HYP) content in lung tissue / content of TGF-β1 in serum, difference from the model group: bleomycin pulmonary fibrosis, after 15 days; for hydroxyproline (HYP) content in lung tissue: 10 mg/kg s.c. once every five days, FIG. 1; for content of TGF-β1 in serum, difference from the model group: fused polypeptides 10 mg/kg s.c. once every five days, nintedanib 25 mg/kg intragastric once a day
Protocol: SD rats were anesthetized by intraperitoneal injection of 4% chloral hydrate with a concentration of 1 mL/100 g. After anesthesia, the rats were fixed and their necks were disinfected by using cotton with 75% alcohol. The skin of the rat neck was longitudinally cut with scissors, and the fascia and muscle were longitudinally bluntly torn with tweezers to expose the trachea. A syringe was inserted into the trachea to inject 5 mg/kg bleomycin, while a blank group was injected with an equal amount of normal saline. Then a rat plate was quickly erected and rotated, the rats' breathing was observed, the neck wound was sterilized after rotation and was sewn, and an amoxicillin anti-inflammatory drug was sprinkled on the suture. After the operation, the rats were put back into a dry and clean cage for resting, waiting for awakening. The rats were awakened after about 1-2 hours, and then fed normally. On the 7th day after modeling, modeling group animals randomly fell into a model group, a Nintedanib positive drug group, recombinant fused polypeptide 1, 2, 3 and 4 dosage groups, and a normal control group, and the groups were administered separately for an administration cycle of 15 days. Living situations of rats were observed every day and their weights were weighed. After administration for 15 days, the eyeballs were removed and blood was taken, the rats were dissected, and lungs were taken. The content of TGF-β1 in serum and the content of HYP in lung tissues were detected.

adenovirus = assay: Mouse pneumonia model, viral pneumonia; assay type: in vivo; conditions: BALB/C mouse pneumonia model, nasal drip; average ± standard deviation
Source text: (§1) A mouse pneumonia model was successfully established by using a nasal drip method. BALB/C mice with a body weight of 18-24 g were selected, and then anesthetized with ether on day 0, day 1 and day 2, respectively, prepared Streptococcus pneumoniae bacteria solution, adenovirus concentrated solution, Mycoplasma pneumoniae, Chlamydia pneumoniae, protozoa and pneumonia fungi were slowly dropped into the nasal cavity of the mice, so that the bacteria solutions entered the trachea and bronchi, and the bacteria solutions were prevented from flowing into the esophagus during the operation to avoid inactivation of the bacteria solutions, so that the mouse pneumonia model was established. After the model was successfully established, the recombinant fused polypeptides according to the present invention were administered.

[2] = test system: mice with myocardial fibrosis; assay: Isoprenaline-induced myocardial fibrosis animal model; assay type: in vivo; conditions: BALB/c mice, isoprenaline 5 mg/kg s.c. daily for 7 days, 12 mg/kg s.c. (Table 5), after the 8th day, FIG. 5
Protocol: In the model group, the experimental mice were injected with isoprenaline (ISO) (5 mg/kg) subcutaneously on the back of the mice every day for 7 consecutive days, and the mice were injected with normal saline subcutaneously (200 μL/mouse) every day. In the blank group, normal saline was injected subcutaneously (200 μL/mouse) every day. […] After the 8th day, blood was taken and was centrifuged, the supernatant was taken, and the content of TGF-β1 in serum was detected.

pulmonary infections = assay: Mouse pneumonia model, pneumonia caused by pulmonary infections; assay type: in vivo, BALB/C mice; conditions: BALB/C mouse pneumonia model, nasal drip, average ± standard deviation
Source text: as §1

pneumonia fungi = assay: Mouse pneumonia model, fungal pneumonia; assay type: in vivo; conditions: BALB/C mouse pneumonia model, nasal drip; average ± standard deviation
Source text: as §1

[3] = test system: SD rats with CCl4-induced hepatic fibrosis; assay: CCl4-induced hepatic fibrosis animal model; assay type: in vivo; conditions: 40% CCl4 i.p. twice a week for 8 weeks, fused polypeptides 6 mg/kg s.c. once every five days
Protocol: Modeling was performed on the rats. Each group other than the blank group was injected with 40% CCl4 intraperitoneally twice a week, the first injection was performed at 3 mL/kg, and then injection was performed at 2 mL/kg. Modeling was performed for 8 weeks to induce hepatic fibrosis. After the intraperitoneal injection of CCl4 for the fourth time, the drugs were administered according to Table 3. After induction for 8 weeks, the administration was stopped. The SD rats were dissected the next day, and blood was taken. The liver tissue was stored in a refrigerator at −80° C. for further use. The expression of HYP in the hepatic tissue of rats was detected. [table]

Mycoplasma pneumoniae = assay: Mouse pneumonia model, mycoplasma pneumonia; assay type: in vivo; conditions: BALB/C mouse pneumonia model, nasal drip; average ± standard deviation
Source text: as §1

Streptococcus pneumoniae = assay: Mouse pneumonia model, bacterial pneumonia; assay type: in vivo; conditions: BALB/C mouse pneumonia model, nasal drip; average ± standard deviation
Source text: as §1

Chlamydia pneumoniae = assay: Mouse pneumonia model, chlamydia pneumonia; assay type: in vivo; conditions: BALB/C mouse pneumonia model, nasal drip; average ± standard deviation
Source text: as §1

protozoa = assay: Mouse pneumonia model, protozoal pneumonia; assay type: in vivo; conditions: BALB/C mouse pneumonia model, nasal drip; average ± standard deviation
Source text: as §1

[4] = test system: SD rats with renal fibrosis; assay: Renal fibrosis animal model (ureter ligation); assay type: in vivo; conditions: 6 mg/kg s.c. once every five days, after 15 days
Protocol: A renal fibrosis animal model was established. SD rats were anesthetized with 4% chloral hydrate, injected with 1 mL/100 g intraperitoneally, fixed to an operation board, and sterilized in an operation area for further use. […] Muscular layers and abdominal walls were sewed layer by layer, the suture was disinfected with alcohol. After SD rats woke up, the rats were put into a cage for feeding. In the blank group, ureter was not ligated, and other steps were the same.
Then, the animals fell into a blank group, a model group, and recombinant fused polypeptide administration groups, and the administration was started on the second day after the operation, and was performed for 15 days. After administration for 15 days, blood was taken and supernatant was taken to detect the content of TGF-β1 in serum.

[5] = test system: mice with bleomycin-induced skin fibrosis; assay: Bleomycin-induced skin fibrosis model; assay type: in vivo, C57/BL black mice; conditions: C57/BL mice, bleomycin 10 μg/mL s.c. daily for 28 days, 10 mg/kg s.c. once every five days, 6 times, FIG. 6
Protocol: Bleomycin (10 μg/mL) was injected subcutaneously every day for 28 days to form skin fibrosis. During the modeling period, the administration groups were given drugs for treatment. After modeling, the mice were killed on the next day, and the skin tissue of the mouse back was taken to detect the content of HYP in the skin tissue. [table]

[6] = listed as recombinant fused polypeptide III
[7] = listed as recombinant fused polypeptide II

B1: PRCWRGEGGGGIVRRADRAAVPGGGGRGDAEAAAKEAAAKEAAAKEAAAKKSDKPGGGGTSLDASIIWAMMQNGGGGLSKL (protein)
chain: PRCWRGEGGGGIVRRADRAAVPGGGGRGDAEAAAKEAAAKEAAAKEAAAKKSDKPGGGGTSLDASIIWAMMQNGGGGLSKL
notes: Recombinant fused polypeptide X-linker2-Y expressed in 293 cells
[1]
  Survival rate (%): 85.7%
  hydroxyproline (HYP) content in lung tissue: can lower the hydroxyproline content
[1]; listed as fused polypeptide 3
  Survival rate (%): equivalent to that of the positive drug group
[1]; FIG. 2, listed as fused polypeptide 3
  content of TGF-β1 in serum, difference from the model group: highly significantly different from the model group (**P<0.01)
[1]; FIG. 2, listed as recombinant fused polypeptide III
  content of TGF-β1 in serum, difference from the model group: can lower the TGF-β1 content
adenovirus
  Inhibitory effect, Viral pneumonia: 69.54 ± 7.49
[2]; listed as recombinant fused polypeptide 3
  content of TGF-β1 in serum, difference from the model group: significantly different from the model group (**P<0.01)
[2]; [6]
  content of TGF-β1 in serum, difference from the model group: can lower the TGF-β1 content
Pulmonary infections
  Inhibitory effect, Pneumonia caused by pulmonary infections: 58.81 ± 4.10
Pulmonary infections; [6]
  Inhibitory effect, Pneumonia caused by pulmonary infections: inhibitory effect
Pneumonia fungi
  Inhibitory effect, Fungal pneumonia: 65.98 ± 3.64
[3]; FIG. 3, listed as Recombinant fused polypeptide 3
  content of HYP in liver tissue, difference from the model group: highly significantly different from the model group (***P<0.001)
[3]; FIG. 3, listed as recombinant fused polypeptide III
  content of HYP in liver tissue, difference from the model group: can lower the HYP content
Mycoplasma pneumoniae
  Inhibitory effect, Mycoplasma pneumonia: 45.53 ± 4.33
Streptococcus pneumoniae
  Inhibitory effect, Bacterial pneumonia: 48.79 ± 7.26
Chlamydia pneumoniae
  Inhibitory effect, Chlamydia pneumonia: 55.78 ± 4.32
protozoa
  Inhibitory effect, Protozoal pneumonia: 68.29 ± 4.70
[4]; FIG. 4, listed as recombinant fused polypeptide 3, 6 mg/kg
  content of TGF-β1 in serum, difference from the model group: highly significantly different from the model group (**P<0.01)
[4]; FIG. 4, listed as recombinant fused polypeptide III, 6 mg/kg
  content of TGF-β1 in serum, difference from the model group: can lower the TGF-β1 content
[5]; listed as recombinant fused polypeptide 3, 10 mg/kg
  content of HYP in skin tissue, difference from the model group: highly significantly different from the model group (**P<0.01)
[5]; listed as recombinant fused polypeptide III, 10 mg/kg
  content of HYP in skin tissue, difference from the model group: can lower the hydroxyproline content

B2: Acetyl-SDKPGGGGTSLDASIIWAMMQNGGGGLSKLGGGGSGGGGSGGGGSPRCWRGEGGGGIVRRADRAAVPGGGGRGD (protein)
chain: SDKPGGGGTSLDASIIWAMMQNGGGGLSKLGGGGSGGGGSGGGGSPRCWRGEGGGGIVRRADRAAVPGGGGRGD
modifications: N-acetyl
notes: Recombinant fused polypeptide Y-linker1-X expressed in 293 cells
[1]
  Survival rate (%): 85.7%
  hydroxyproline (HYP) content in lung tissue: can lower the hydroxyproline content
[1]; listed as fused polypeptide 2
  Survival rate (%): equivalent to that of the positive drug group
[1]; FIG. 2, listed as fused polypeptide 2
  content of TGF-β1 in serum, difference from the model group: highly significant different from the model group (***P<0.001)
[1]; FIG. 2, listed as recombinant fused polypeptide II
  content of TGF-β1 in serum, difference from the model group: can lower the TGF-β1 content
adenovirus
  Inhibitory effect, Viral pneumonia: 58.08 ± 5.27
[2]; listed as recombinant fused polypeptide 2
  content of TGF-β1 in serum, difference from the model group: highly significantly different from the model group (***P<0.001)
[2]; [7]
  content of TGF-β1 in serum, difference from the model group: can lower the TGF-β1 content
Pulmonary infections
  Inhibitory effect, Pneumonia caused by pulmonary infections: 65.87 ± 3.19
Pulmonary infections; [7]
  Inhibitory effect, Pneumonia caused by pulmonary infections: inhibitory effect
Pneumonia fungi
  Inhibitory effect, Fungal pneumonia: 63.07 ± 3.02
[3]; FIG. 3, listed as Recombinant fused polypeptide 2
  content of HYP in liver tissue, difference from the model group: highly significantly different from the model group (***P<0.001)
[3]; FIG. 3, listed as recombinant fused polypeptide II
  content of HYP in liver tissue, difference from the model group: can lower the HYP content
Mycoplasma pneumoniae
  Inhibitory effect, Mycoplasma pneumonia: 45.72 ± 5.69
Streptococcus pneumoniae
  Inhibitory effect, Bacterial pneumonia: 49.18 ± 5.32
Chlamydia pneumoniae
  Inhibitory effect, Chlamydia pneumonia: 50.21 ± 4.85
protozoa
  Inhibitory effect, Protozoal pneumonia: 66.13 ± 5.36
[4]; FIG. 4, listed as recombinant fused polypeptide 2, 6 mg/kg
  content of TGF-β1 in serum, difference from the model group: highly significantly different from the model group (***P<0.001)
[4]; FIG. 4, listed as recombinant fused polypeptide II, 6 mg/kg
  content of TGF-β1 in serum, difference from the model group: can lower the TGF-β1 content
[5]; listed as recombinant fused polypeptide 2, 10 mg/kg
  content of HYP in skin tissue, difference from the model group: highly significantly different from the model group (***P<0.001)
[5]; listed as recombinant fused polypeptide II, 10 mg/kg
  content of HYP in skin tissue, difference from the model group: can lower the hydroxyproline content

Reference: patent publication US12286461B2, “Recombinant fused polypeptide and use thereof” (priority 2019, dated 2025)
